In publication PMC5433938:

How the values were obtained:
[1] = target: T1, estrogen receptor alpha (ERα) (human (endogenous in MCF-7 and T-47D)), P03372; assay: structured illumination microscopy (N-SIM) of double immunofluorescence; T-47D cells, formalin-fixed paraffin cell-block sections; two primary antibodies, Alexa Fluor 488 and 594 secondaries; % of ER dimer = yellow area/(yellow + green + red areas) x 100; settings: remark: other sources report otherwise
T1 chain: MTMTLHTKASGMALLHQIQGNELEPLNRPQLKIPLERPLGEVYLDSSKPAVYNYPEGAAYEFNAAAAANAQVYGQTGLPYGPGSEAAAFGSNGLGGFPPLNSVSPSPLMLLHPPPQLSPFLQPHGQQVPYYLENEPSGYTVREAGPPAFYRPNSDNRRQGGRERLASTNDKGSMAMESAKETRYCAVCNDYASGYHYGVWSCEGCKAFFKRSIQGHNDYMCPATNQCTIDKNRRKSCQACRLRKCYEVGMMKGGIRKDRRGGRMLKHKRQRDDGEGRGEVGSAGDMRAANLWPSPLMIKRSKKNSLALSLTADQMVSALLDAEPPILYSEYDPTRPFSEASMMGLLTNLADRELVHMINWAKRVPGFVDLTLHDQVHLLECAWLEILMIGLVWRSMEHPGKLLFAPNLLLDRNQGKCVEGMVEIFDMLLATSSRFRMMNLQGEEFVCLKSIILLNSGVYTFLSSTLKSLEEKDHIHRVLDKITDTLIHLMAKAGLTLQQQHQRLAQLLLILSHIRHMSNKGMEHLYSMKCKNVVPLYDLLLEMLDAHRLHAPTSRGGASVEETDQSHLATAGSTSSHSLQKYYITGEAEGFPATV

[2] = target: T1, estrogen receptor alpha (ERα) (human …); assay: structured illumination microscopy (N-SIM) of double immunofluorescence; MCF-7 cells, formalin-fixed paraffin cell-block sections; two primary antibodies, Alexa Fluor 488 and 594 secondaries; % of ER dimer = yellow area/(yellow + green + red areas) x 100; homodimer also followed with 10 nM E2 for 15, 45, 90 min; settings: remark: other sources report otherwise

B1: estrogen receptor alpha (ERα), P03372 1-595 (receptor)
chain: T1 chain
% of ER dimer (N-SIM) [1]: 13.4% | % of ER dimer (N-SIM) [2]: 23%
